Values of other authors as cited in paper PMC6989705 (EJNMMI Radiopharmacy and Chemistry, 2020).

Settings: endogenous ligand; ref Rai et al. [2015]; cited from earlier work
Method: Somatostatin receptors (SSTRs) are validated biomarkers in the management of NETs. The short biological half-life of the endogenous ligand somatostatin (< 5 min) prevents pharmacological use of this peptide (Rai et al. [2015]). Therefore, synthetic somatostatin analogs that are more resistant to peptidases, such as octreotide, were developed. Using radiolabeled somatostatin analogs, the presence of SSTRs on tumor cells may be exploited for molecular imaging and targeted radionuclide therapy (TRNT) for the treatment of unresectable neuroendocrine tumors (Pauwels et al. [2018]; Deroose et al. [2 ...

somatostatin
biological half-life: < 5 min
